From paper PMC7174398

How the values were obtained:
[1] = target: mHsp60 S464C variant (human); test: SEC-MALS; mHsp60 (WT or variant) with mHsp10, pre-incubated with 1 mM ATP, 1 mM BeCl2 and 10 mM NaF for 5 min; Superose-6, ~25 C
[2] = target: mHsp60 S464C variant (human); test: native gel or EMSA; 15 uM mHsp60 variant pre-incubated 5 min without nucleotide or with ADP in 20 mM Tris-HCl pH 7.7, 20 mM MgCl2, 50 mM KCl; 6% native PAGE
[3] = target: mHsp60 S464R variant (human); test: SEC-MALS; mHsp60 (WT or variant) with mHsp10, pre-incubated with 1 mM ATP, 1 mM BeCl2 and 10 mM NaF for 5 min; Superose-6, ~25 C
[4] = target: mHsp60 S464R/K109E variant (human); test: as above

mHsp60 S464C variant (natural protein)
stoichiometry N [1]: 14
stoichiometry N [2]: 7

mHsp60 S464R variant (natural protein)
stoichiometry N [3]: 7

mHsp60 S464R/K109E variant (natural protein)
stoichiometry N [4]: 7
